Data taken from article PMC4703059.

Target: Full-length wt Lst7 (K. lactis) with C-terminal Strep tag (Kluyveromyces lactis)
Test: AUC + SEC-MALS; purified K. lactis Lst7/Lst4 complex; AUC sedimentation velocity with interference data at 0.15 mg/ml, SEDFIT; SEC-MALS of 50 µg in 50 µl on TSKgel SuperSW2000 in PBS, 0.35 ml/min

B1: Engineered Lst4 (K. lactis) aa58-714 with a deletion of the intra-DENN loop (aa 388-534) (domain or fragment)
chain: NDRLHNGGFRLIISQELGHVTSRNNYQVVLDHSSVNFHTGAHIPLNELKDYIFGSSIRTIDYSASSDKIKVVKSANIVLFTRIFYLNEKSTLRIAISCCVTDDVLPVLTECWPHISSFLDQCENTLLKYLAKNDTQFLPHDWKARNCIEVAAVLQTFQRKIIPLLSGYSDTPRLFLYPMDSIPYIKTWVKYVTNWIELKDGPRVRFLPILLAKLRYDFASLLKENSNTRIVILTGNMNVANRLIFILTAFLGPHFRGTLHKSINSQGCPSPAGRKMSNMSGASDFPFELKPSNSSITETNKGWEIPRIKRDPTFSVTSVSSDETGVQTFILNDAFADLVIDPPSYDTTVSNEKHGEIVEVNMASPRKQRNNQNQELLRRFTSYTPHYNQWFQLQACQITTESENKVIHSMKRDLTYADQDPCKKDKSTSTLLISLRSREIKQVTIVRDTNNRFIQRTKKILQNGKVGPVSRAMLSGIETTDQHLKKLMECNNDNEALVSLFNDIVTCAST
stoichiometry N: 1
